The target of data set [1] is T1, human LGR8 (Homo sapiens, UniProt Q8WXD0).
T1 construct: expressed in transfected cells; host or cells: human 293T cells, stably transfected
Briefly: Functional cAMP assay: inhibition of the INSL3 response at the native INSL3 receptor (LGR8). It counts as cell-based. Conditions: FIG. 4; human 293T cells stably transfected with human LGR8; cAMP ELISA. How it is done:
Human 293T cells stably transfected with human LGR7, or LGR8 were preincubated in the presence of 0.25 mM 3-isobutyl-1-methyl xanthine (IBMX, Sigma) before various treatments for 30 minutes. At the end of the incubation cells were lysed for measurement of cAMP using a well-characterized cAMP ELISA (Satoko et al., J Biol Chem, 278:7855-7862). All experiments were repeated at least three times using cells from independent transfections, Results are plotted as pmol cAMP/10^4 cells.

Data set [2] can be described thus: Circular dichroism (CD) spectroscopy. It counts as physicochemical. The settings on record: FIG. 5; in water and phosphate buffered saline. The method, then: Circular Dichroism (CD) Spectroscopy:
CD spectra were taken on a Jasco J-720 instrument at room temperature in a 1 mm path-length cell, Doubly distilled water, 10 mM sodium phosphate buffer containing 120 mM NaCl pH 7.4, and spectroscopy grade trifluoroethanol (TFE) were used as solvents. The peptide concentrations were made to 1 μM, determined by quantitative RP-HPLC and amino acid analysis (ref). Curves were smoothed by the algorithm provided by Jasco, Mean residue ellipticity ([θ]MR) is expressed in degrees×cm2/dmole by using the molecular mass. CD spectra evaluations were based on comparison with known peptide conformations (Otvos, L., Jr. 1996. from Neuropeptide protocols. Irvine, G. & Williams, C., Eds. pp 153-161. Humana Press, Totowa, N.J.).
(In general: CD spectra are sensitive to the conformation of chiral molecules.)

Positions of bridges follow the written chain, without caps; N, C: chain ends. No end group written: not given here.

T1 sequence (Q8WXD0 whole entry): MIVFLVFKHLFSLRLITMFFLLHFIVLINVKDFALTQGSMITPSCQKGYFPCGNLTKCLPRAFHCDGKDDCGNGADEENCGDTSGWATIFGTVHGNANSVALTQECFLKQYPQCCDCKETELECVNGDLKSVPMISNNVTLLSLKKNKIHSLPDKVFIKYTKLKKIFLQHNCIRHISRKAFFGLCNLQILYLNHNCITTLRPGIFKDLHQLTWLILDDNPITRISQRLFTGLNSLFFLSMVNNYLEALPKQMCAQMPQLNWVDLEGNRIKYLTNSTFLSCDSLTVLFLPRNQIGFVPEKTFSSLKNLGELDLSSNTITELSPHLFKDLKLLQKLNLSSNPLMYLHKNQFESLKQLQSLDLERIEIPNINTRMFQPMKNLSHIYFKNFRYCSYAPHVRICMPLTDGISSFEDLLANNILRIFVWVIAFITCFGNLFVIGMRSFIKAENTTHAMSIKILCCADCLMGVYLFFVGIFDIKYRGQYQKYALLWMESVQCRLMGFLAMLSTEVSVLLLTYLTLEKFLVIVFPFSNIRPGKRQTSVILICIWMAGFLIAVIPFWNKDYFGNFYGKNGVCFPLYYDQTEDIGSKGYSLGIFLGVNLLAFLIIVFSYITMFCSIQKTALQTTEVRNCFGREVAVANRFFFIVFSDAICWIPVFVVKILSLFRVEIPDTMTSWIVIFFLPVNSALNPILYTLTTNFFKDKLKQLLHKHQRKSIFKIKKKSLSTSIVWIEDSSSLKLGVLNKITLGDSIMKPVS

Consider “cINSLa: cyclic INSL3 B-chain mimetic; Glu4 and Arg26 replaced with cysteine and a disulphide bond formed (PTPCMREKLCGHHFVRALVRVCGGPCWSTEA; disulfide 4-26; cysteine pairing not given here)”, for which, in data set [1], the “inhibition of the response of INSL3 (measured by cAMP response) to the native INSL3 receptor (LGR8)” value is reported as “antagonistic activity”. Further, the “alpha-helical content from CD spectra” value in data set [2] is given as “significant alpha-helical content”.

Source of the values: patent US20070004619A1, “Relaxin superfamily peptide analogues” (Howard Florey Institute of Experimental Physiology and …, priority 2003, published 2007).
